Results on six molecules are retold here after paper PMC13178787 (Nature, 2024).

T1: GST-tagged dystrophin (3049–3299) (mouse, UniProt P11531 3049-3299)
T1 sequence (looked up): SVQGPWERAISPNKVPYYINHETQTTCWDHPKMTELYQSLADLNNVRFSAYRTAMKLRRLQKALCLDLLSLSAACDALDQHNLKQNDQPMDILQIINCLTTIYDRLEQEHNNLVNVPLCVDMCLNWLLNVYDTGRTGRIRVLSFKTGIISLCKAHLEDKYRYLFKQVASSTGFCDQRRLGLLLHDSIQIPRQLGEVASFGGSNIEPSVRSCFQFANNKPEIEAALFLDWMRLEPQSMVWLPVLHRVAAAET

B1: sarcospan (natural protein, mouse (endogenous in skeletal muscle), UniProt Q62147 1-216, looked up)
chain: MGRKPSPRAQELPEEEARTCCGCRFPLLLALLQLALGIAVTVLGFLMASISPSLLVRDTPFWAGSIVCVVAYLGLFMLCVSYQVDERTCVQFSMKVFYFLLSALGLMVCMLAVAFAAHHYSLLAQFTCETSLDSCQCKLPSSEPLSRAFVYRDVTDCTSVTGTFKLFLIIQMVLNLVCGLVCLLACFVMWKHRYQVFYVGVGLRSLMASDGQLPKA
B2: 6×His-tagged dystrobrevin (1–237) (domain or fragment, mouse, UniProt Q9D2N4 1-237, looked up)
chain: MIEDSGKRGNTMAERRQLFAEMRAQDLDRIRLSTYRTACKLRFVQKKCNLHLVDIWNVIEALRENALNNLDPNIELNVARLEAVLSTIFYQLNKRMPTTHQIHVEQSISLLLNFLLAAFDPEGHGKISVFAVKMALATLCGGKIMDKLRYIFSMISDSSGVMVYGRYDQFLREVLKLPTAVFEGPSFGYTEQSARSCFSQQKKVTLNGFLDTLMSDPPPQCLVWLPLLHRLANVENV
B3: β-sarcoglycan (natural protein, mouse (endogenous in skeletal muscle), UniProt P82349 1-320, looked up)
chain: MAAAAAAAAATEQQGSNGPVKKSMREKAVERRNVNKEHNSNFKAGYIPIDEDRLHKTGLRGRKGNLAICVIVLLFILAVINLLITLVIWAVIRIGPNGCDSMEFHESGLLRFKQVSDMGVIHPLYKSTVGGRRNENLVITGNNQPIVFQQGTTKLSVEKNKTSITSDIGMQFFDPRTHNILFSTDYETHEFHLPSGVKSLNVQKASTERITSNATSDLNIKVDGRAIVRGNEGVFIMGKTIEFHMGGDVELKAENSIILNGTVMVSPTRLPSSSSGDQSGSGDWVRYKLCMCADGTLFKVQVTGHNMGCQVSDNPCGNTH
modifications: glycosylated at N160, N213, N260
B4: β-dystroglycan (natural protein, mouse (endogenous in skeletal muscle), UniProt Q62165 652-893, looked up)
chain: SIVVEWTNNTLPLEPCPKEQIIGLSRRIADENGKPRPAFSNALEPDFKALSIAVTGSGSCRHLQFIPVAPPSPGSSAAPATEVPDRDPEKSSEDDVYLHTVIPAVVVAAILLIAGIIAMICYRKKRKGKLTLEDQATFIKKGVPIIFADELDDSKPPPSSSMPLILQEEKAPLPPPEYPNQSMPETTPLNQDTVGEYTPLRDEDPNAPPYQPPPPFTAPMEGKGSRPKNMTPYRSPPPYVPP
modifications: glycosylated at N659
B5: δ-sarcoglycan (natural protein, mouse (endogenous in skeletal muscle), UniProt P82347 1-289, looked up)
chain: MPQEQYSHHRSTMPSSEGPHIYKVGIYGWRKRCLYFFVLLLMILILVNLAMTIWILKVMNFTIDGMGNLRITEKGLKLEGDSEFLQPLYAKEIKSRPGNALYFKSARNVTVNILNDQTKVLTQLVTGPKAVEAYGKRFEVKTVSGKLLFSADDSEVVVGAERLRVLGAEGTVFPKSIETPNVRADPFKELRLESPTRSLVMEAPKGVEINAEAGNMEAICRSELRLESKDGEIKLDAAKIKLPRLPRGSYTPTGTRQKVFEVCVCANGRLFLSQAGTGSTCQINTSVCL
modifications: glycosylated at N108
B6: dystrobrevin (natural protein, mouse (endogenous in skeletal muscle), UniProt Q9D2N4 1-746, looked up)
chain: MIEDSGKRGNTMAERRQLFAEMRAQDLDRIRLSTYRTACKLRFVQKKCNLHLVDIWNVIEALRENALNNLDPNIELNVARLEAVLSTIFYQLNKRMPTTHQIHVEQSISLLLNFLLAAFDPEGHGKISVFAVKMALATLCGGKIMDKLRYIFSMISDSSGVMVYGRYDQFLREVLKLPTAVFEGPSFGYTEQSARSCFSQQKKVTLNGFLDTLMSDPPPQCLVWLPLLHRLANVENVFHPVECSYCHSESMMGFRYRCQQCHNYQLCQDCFWRGHAGGSHSNQHQMKEYTSWKSPAKKLTNALSKSLSCASSREPLHPMFPDQPEKPLNLAHIVPPRPVTSMNDTLFSHSVPSSGSPFITRSSPPKDSEVEQNKMLARAAPAFLKGRGIQYSLNVADRLADEHVLIGLYVNMLRNDPPCMLESSNRLDEEHRLIARYAARLAAESSSSQPTQQRSAPDISFTIDANKQQRQLIAELENKNREILQEIQRLRVEHEQASQPTPEKAQQNPTLLAELRLLRQRKDELEQRMSALQESRRELMVQLEGLMKLLKEEELKQGTQGASSPRSSPSHTISRPIPMPIRSASACPTPTHTPQDSLTGVGGDVQEAFAQSSRRNLRSDLLVAADSITNTMSSLVKELNSEVASETESTVDSEFSRPQFEDLAPSPTSEKAFLAQIHSRKPGYIHGGAASTTHGDMVPEDGDPYTQPEDGNYENESVRQLENELQLEEYLKQKLQDEAYQVSLQG

The test “β-dystroglycan” deals with B4. The experiment in a line: cryo-EM structure.
The target in test [1] is T1, GST-tagged dystrophin (3049–3299). Kind of test: SEC.
In another test the target is dystrophin (mouse (endogenous in skeletal muscle), UniProt P11531 1-3678). Kind of test: cryo-EM structure.
dystrophin, sequence (P11531 whole entry): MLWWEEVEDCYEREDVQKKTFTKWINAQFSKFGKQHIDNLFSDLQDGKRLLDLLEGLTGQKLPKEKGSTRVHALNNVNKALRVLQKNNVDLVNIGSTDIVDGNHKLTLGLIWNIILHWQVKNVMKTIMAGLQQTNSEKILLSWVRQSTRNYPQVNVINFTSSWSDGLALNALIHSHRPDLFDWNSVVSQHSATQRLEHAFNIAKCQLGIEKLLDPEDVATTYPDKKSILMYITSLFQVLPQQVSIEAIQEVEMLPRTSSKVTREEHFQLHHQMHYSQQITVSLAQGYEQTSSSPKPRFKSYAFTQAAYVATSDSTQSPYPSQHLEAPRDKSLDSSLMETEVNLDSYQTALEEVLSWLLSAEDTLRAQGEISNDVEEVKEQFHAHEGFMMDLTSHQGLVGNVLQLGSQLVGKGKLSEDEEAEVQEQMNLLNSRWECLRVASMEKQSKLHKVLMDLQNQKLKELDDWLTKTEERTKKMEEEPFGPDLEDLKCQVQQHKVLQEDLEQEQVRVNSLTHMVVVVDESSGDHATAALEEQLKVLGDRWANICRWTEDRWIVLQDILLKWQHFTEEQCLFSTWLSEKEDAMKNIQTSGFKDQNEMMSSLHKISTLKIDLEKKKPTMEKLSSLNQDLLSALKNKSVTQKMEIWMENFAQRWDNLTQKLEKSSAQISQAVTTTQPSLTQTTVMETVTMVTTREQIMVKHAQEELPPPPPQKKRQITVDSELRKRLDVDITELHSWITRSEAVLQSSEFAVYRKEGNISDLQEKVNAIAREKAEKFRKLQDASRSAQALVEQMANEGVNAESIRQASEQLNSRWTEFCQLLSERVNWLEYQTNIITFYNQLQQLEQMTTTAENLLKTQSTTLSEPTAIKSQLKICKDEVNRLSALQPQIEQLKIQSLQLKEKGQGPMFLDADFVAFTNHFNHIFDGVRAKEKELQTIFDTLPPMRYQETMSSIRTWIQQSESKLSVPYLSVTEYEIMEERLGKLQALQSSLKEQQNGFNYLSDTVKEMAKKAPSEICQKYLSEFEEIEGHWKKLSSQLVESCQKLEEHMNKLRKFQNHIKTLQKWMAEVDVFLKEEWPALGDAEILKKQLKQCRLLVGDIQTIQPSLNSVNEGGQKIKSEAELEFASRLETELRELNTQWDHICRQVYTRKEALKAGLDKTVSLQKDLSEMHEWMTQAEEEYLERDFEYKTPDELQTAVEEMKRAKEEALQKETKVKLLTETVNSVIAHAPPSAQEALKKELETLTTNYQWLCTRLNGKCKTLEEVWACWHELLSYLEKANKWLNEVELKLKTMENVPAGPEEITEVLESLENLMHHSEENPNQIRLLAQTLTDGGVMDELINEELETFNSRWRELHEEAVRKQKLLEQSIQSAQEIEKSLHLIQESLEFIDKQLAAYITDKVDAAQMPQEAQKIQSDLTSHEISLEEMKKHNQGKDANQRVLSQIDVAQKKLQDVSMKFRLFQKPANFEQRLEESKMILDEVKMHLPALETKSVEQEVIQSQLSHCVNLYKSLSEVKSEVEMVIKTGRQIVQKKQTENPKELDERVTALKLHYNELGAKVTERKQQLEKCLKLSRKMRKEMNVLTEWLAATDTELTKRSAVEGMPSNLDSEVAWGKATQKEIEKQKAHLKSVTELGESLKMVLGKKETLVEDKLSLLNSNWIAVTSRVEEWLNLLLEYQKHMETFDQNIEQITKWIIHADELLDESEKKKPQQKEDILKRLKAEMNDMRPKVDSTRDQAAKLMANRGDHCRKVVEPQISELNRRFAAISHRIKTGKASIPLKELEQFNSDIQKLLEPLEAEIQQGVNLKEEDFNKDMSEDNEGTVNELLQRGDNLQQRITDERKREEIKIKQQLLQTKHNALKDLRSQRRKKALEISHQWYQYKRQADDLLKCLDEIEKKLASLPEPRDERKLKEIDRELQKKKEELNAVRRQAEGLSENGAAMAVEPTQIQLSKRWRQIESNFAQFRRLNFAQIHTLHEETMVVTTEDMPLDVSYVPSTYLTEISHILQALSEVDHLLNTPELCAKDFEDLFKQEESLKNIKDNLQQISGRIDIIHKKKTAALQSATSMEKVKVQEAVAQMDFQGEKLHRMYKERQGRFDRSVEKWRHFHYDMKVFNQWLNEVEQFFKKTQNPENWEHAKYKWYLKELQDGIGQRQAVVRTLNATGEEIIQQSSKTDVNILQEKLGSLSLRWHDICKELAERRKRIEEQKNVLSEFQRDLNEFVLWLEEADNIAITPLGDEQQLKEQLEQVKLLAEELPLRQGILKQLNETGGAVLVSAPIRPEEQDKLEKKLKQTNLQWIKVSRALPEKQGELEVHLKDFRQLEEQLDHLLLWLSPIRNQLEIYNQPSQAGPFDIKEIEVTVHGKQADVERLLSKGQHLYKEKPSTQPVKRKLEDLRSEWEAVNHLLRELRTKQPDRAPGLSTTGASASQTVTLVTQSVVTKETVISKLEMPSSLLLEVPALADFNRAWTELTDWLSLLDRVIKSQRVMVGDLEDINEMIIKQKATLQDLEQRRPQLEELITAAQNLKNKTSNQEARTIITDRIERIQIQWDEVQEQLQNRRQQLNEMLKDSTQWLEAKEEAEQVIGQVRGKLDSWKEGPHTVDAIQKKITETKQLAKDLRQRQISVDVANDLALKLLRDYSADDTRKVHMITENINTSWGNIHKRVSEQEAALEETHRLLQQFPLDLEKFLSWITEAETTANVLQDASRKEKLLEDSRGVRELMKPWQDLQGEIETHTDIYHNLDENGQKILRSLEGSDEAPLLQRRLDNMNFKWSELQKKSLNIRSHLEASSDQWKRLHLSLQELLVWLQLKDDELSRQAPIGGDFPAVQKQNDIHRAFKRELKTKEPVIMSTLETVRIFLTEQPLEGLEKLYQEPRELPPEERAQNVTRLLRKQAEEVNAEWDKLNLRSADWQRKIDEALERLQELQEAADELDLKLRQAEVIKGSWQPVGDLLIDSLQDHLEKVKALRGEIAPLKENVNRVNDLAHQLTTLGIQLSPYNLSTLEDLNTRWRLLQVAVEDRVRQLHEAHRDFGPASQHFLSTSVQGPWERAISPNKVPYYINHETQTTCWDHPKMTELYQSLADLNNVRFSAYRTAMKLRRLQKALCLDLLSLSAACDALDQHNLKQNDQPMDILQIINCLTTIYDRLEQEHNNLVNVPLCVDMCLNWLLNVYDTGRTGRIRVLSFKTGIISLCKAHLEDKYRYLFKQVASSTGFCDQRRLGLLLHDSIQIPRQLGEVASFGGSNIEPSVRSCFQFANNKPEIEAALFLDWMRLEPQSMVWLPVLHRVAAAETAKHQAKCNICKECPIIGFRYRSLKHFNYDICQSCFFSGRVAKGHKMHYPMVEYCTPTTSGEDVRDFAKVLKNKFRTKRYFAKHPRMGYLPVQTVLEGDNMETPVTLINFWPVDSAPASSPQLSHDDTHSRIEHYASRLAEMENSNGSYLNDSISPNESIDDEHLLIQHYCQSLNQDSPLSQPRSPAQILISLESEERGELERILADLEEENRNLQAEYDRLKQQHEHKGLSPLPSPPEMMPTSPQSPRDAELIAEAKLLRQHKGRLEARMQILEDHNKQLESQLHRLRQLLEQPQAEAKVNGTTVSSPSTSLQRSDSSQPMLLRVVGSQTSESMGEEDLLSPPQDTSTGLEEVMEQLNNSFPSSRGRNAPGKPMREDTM
The test “β-sarcoglycan” deals with B3. Kind of test: cryo-EM structure.

For B1, the binding result in the test with β-dystroglycan is given as “binds”.

On to B2, for which the binding result in test [1] was “binds”.

For the molecule B3, the binding result with dystrophin is “binds”.

For the molecule B4, in the test with dystrophin, the binding result was “binds”.

On to B5, for which, in the test with β-sarcoglycan, the binding result is “binds”.

As for B6, in the test with dystrophin, the binding result was “binds”.
